Results taken from PMC8771494.

Target: APC15R (the 15-aa repeat region of Adenomatous polyposis coli, repeats A-D with the linker region) (human)
Assay: cross-linking

APC15R (the 15-aa repeat region of Adenomatous polyposis coli, repeats A-D with the linker region) (human), sequence (P25054 2-2843): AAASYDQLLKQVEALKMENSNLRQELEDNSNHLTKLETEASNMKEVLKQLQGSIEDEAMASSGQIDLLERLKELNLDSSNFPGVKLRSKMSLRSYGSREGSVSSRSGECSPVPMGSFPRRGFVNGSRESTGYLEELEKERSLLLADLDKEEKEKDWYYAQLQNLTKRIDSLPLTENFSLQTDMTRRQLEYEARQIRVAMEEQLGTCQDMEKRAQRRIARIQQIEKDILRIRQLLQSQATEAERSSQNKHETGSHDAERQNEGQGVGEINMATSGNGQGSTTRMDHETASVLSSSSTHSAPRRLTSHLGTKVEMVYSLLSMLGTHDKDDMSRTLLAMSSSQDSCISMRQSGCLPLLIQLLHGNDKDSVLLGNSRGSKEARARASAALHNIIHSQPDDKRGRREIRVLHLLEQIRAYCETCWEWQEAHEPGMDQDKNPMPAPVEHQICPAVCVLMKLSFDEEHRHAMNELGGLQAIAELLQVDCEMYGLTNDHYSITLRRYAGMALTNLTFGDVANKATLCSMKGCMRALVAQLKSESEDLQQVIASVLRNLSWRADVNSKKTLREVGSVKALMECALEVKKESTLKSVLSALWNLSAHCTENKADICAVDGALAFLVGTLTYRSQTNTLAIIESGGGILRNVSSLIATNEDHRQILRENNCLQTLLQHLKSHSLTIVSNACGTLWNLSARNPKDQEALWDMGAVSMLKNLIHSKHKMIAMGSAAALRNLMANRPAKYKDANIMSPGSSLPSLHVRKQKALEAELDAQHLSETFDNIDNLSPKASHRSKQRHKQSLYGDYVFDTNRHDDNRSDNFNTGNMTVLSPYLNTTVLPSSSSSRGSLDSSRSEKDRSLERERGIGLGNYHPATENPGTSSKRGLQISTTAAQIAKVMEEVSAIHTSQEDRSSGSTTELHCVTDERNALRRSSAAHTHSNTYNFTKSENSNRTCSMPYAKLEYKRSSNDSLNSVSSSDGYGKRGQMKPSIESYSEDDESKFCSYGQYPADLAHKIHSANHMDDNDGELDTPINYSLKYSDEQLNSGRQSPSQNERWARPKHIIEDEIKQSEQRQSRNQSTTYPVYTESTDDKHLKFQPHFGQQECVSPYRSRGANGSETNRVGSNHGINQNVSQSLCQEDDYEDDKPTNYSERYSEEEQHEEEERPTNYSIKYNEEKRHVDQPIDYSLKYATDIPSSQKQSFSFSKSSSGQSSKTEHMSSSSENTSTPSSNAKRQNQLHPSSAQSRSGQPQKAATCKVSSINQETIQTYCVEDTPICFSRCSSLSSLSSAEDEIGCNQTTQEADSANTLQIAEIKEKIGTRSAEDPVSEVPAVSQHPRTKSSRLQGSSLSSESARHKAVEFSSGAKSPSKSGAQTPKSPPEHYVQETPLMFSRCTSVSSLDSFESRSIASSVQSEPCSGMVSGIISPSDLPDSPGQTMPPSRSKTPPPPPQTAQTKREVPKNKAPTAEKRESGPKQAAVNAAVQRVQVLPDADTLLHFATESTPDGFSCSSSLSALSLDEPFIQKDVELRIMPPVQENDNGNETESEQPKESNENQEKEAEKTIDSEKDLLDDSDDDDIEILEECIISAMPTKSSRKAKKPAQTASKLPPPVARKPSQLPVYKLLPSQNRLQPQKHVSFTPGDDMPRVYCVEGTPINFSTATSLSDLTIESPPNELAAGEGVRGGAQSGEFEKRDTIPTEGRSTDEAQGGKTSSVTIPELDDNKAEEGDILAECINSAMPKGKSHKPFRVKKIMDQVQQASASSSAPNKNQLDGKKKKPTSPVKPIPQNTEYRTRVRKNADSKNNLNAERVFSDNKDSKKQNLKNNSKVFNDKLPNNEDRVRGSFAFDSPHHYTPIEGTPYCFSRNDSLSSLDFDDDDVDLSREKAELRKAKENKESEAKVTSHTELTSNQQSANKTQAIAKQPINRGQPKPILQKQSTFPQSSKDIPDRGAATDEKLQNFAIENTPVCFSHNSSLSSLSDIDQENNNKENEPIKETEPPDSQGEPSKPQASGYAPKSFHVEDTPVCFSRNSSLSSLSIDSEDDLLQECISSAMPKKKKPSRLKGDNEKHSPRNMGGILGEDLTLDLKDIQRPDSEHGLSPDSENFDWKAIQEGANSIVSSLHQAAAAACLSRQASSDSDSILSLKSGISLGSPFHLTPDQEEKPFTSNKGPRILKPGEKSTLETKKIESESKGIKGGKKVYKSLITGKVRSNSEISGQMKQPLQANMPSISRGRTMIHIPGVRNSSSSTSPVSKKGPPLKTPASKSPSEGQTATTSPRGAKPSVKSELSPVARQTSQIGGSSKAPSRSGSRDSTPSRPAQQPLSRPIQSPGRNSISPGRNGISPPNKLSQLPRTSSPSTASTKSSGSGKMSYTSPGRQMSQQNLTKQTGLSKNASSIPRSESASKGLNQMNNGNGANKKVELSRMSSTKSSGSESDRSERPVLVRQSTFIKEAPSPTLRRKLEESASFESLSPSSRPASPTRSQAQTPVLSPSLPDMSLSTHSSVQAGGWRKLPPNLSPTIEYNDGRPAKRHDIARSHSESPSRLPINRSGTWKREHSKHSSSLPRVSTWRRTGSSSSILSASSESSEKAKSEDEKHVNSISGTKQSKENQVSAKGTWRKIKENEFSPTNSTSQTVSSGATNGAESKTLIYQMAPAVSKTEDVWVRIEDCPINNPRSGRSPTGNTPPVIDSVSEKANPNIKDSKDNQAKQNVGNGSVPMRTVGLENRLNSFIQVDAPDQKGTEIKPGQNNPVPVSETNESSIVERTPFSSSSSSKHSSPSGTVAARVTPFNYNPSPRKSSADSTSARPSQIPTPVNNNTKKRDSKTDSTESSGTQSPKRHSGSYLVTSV

## β-catenin (aa. 150–665), the central region of β-catenin (from UniProt P35222 150-665) (domain or fragment)
  stoichiometry N (β-catenin per APC15R): 1
